Assay results as given in PMC8100106, “Selection of a picomolar antibody that targets CXCR2-mediated neutrophil activation and alleviates EAE symptoms” (Nature Communications, 2021).

Experiments:
[1] = molecular target: T1, pepN48, first 48 residues of the extracellular N-terminus of hCXCR2 (Homo sapiens, biotin on the N-terminus); assay: SPR; biotinylated pepN48 loaded on streptavidin chip (Series S Sensor Chip SA), antibody flowed over, Biacore T200, HBS-EP+ buffer pH 7.4; conditions: both partners purified
T1 construct: human CXC chemokine receptor 2 (CXCR2), first 48 residues; also called CXCR2 N-terminal peptide; source: synthetic peptide (Chinese Peptide)
T1 chain: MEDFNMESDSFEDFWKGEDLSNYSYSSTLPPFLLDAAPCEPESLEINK

[2] = molecular target: T2, human CXCR2 (hCXCR2)-mCherry fusion protein on U2OS cells (human, UniProt P25025); assay: cell-based or functional assay
[3] = molecular target: T3, pepN48, peptide of the first 48 residues of the extracellular N-terminus of hCXCR2 (Homo sapiens, biotin labeled on its N-terminus); assay: SPR; biotinylated pepN48 loaded on a streptavidin Series S Sensor Chip SA; antibody flowed; Biacore T200; HBS-EP+ buffer pH 7.4; conditions: both partners purified
T3 construct: human CXC chemokine receptor 2 (CXCR2), first 48 residues; a blank before the last K in the print was removed; also called CXCR2 N-terminal peptide; source: synthetic peptide (Chinese Peptide, Hangzhou)
T3 chain: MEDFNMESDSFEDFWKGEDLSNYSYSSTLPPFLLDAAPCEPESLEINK

[4] = molecular target: T4, macaque CXCR2 (mcCXCR2-mCherry) on U2OS cells (Macaca mulatta (macaque species not …, UniProt A0A5F7ZQV3)); assay: flow cytometry on cells; U2OS cells transiently overexpressing receptor-mCherry; 2 μg mL^−1 antibody in FACS buffer (0.5% BSA in PBS pH 7.4, 2 mM EDTA), 4 °C, 15 min; Alexa Fluor 488 anti-human IgG; conditions: one partner purified
T4 construct: macaque CXCR2; also called macaque monkey CXCR2; source: U2OS, transiently overexpressed, on cells
T4 sequence (Q28519 whole entry): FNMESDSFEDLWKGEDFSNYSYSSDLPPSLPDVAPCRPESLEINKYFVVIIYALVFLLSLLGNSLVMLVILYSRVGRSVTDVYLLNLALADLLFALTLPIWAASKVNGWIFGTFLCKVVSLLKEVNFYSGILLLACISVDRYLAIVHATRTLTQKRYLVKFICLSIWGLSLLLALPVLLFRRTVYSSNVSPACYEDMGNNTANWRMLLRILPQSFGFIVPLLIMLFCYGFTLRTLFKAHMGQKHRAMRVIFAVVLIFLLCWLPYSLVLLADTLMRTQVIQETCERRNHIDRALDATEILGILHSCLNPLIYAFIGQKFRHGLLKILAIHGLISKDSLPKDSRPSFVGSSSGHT

[5] = molecular target: T5, pepN9-19, 9-19 amino acid peptide of hCXCR2 (human); assay: crystal structure; Fab mixed with pepN9-19 at a molar ratio of 1:3; hanging drop vapor diffusion, 18 °C; conditions: both partners purified
T5 construct: human CXCR2 residues 9-19; source: synthetic peptide (Sangon Biotech) for crystallography
T5 chain: DSFEDFWKGED

[6] = molecular target: T2, human CXCR2 (hCXCR2)-mCherry fusion …; assay: immunostaining of cells or tissue; U2OS cells overexpressing receptor-mCherry, fixed with 4% paraformaldehyde; 2 μg mL^−1 antibody at 4 °C overnight; Alexa Fluor 488 anti-human IgG; confocal microscopy; conditions: one partner purified
[7] = molecular target: T2, human CXCR2 (hCXCR2)-mCherry fusion …; assay: flow cytometry on cells; cellular supernatants with scFv-Fc on U2OS cells with membrane-bound hCXCR2-mCherry; conditions: partners not purified

B1: abN48-IgG1 (antibody, V domains shown)
VH: QVQLVQSGAEVKKPGSSVKVSCKASGGTLSSYAISWVRQAPGQGPEWMGWINPNSGGTNYAQKFQGRVTMTRDTSISTAYMELSRLRPDDTAVYYCASGYCSSTSCYDYWGQGTLVTVSS
VL: QAVLTQPSSLSASPGASVSLTCTLRSGINVGAYRIYWYQQKPGSPPQFLLRYKSDSDKQQGSGVPSRFSGSRDASANAGILLISGLRSEDEADYYCAIWHSSAWVFGGGTQLTVL
notes: VH of abN48 (from the scFv H8); complete constant domains of the IgG1 heavy chain; VL of abN48 on a complete light chain constant domain (lambda type is said of abN48-2-IgG1); IgG1; made from the scFv abN48 (H8); source: HEK293F, co-transfected heavy and light chain plasmids, purified (Protein A)
koff [1]: 0.00035 s⁻¹ | kon [1]: 350000 M⁻¹ s⁻¹

B2: abN48-2-IgG1 (antibody, V domains shown)
VH: QVQLVQSGAEVKKPGSSVKVSCKASGGTLSSYAISWVRQAPGQGPEWMGWINPNSGGTNYAQKFQGRVTMTRDTSISTAYMELSRLRPDDTAVYYCASGYCSRTRCYDYWGQGTLVTVSS
VL: QAVLTQPSSLSASPGASVSLTCTLRSGINVGAYRIYWYQQKPGSPPQFLLRYKSDSDKQQGSGVPSRFSGSRDASANAGILLISGLRSEDEADYYCAIWHSSAWVFGGGTQLTVL
notes: VH as the heavy chain of Dm1 with two changes in H-CDR3 (Kabat numbering); complete constant domains of the IgG1 heavy chain; as the light chain of Dm1 (lambda type); IgG1, lambda; also called H8-2
koff [1]: 1.7e-05 s⁻¹ | kon [1]: 940000 M⁻¹ s⁻¹

B3: abN48-2-IgG1 (antibody, V domains shown)
VH: QVQLVQSGAEVKKPGSSVKVSCKASGGTLSSYAISWVRQAPGQGPEWMGWINPNSGGTNYAQKFQGRVTMTRDTSISTAYMELSRLRPDDTAVYYCASGYCSRTRCYDYWGQGTLVTVSS
VL: QAVLTQPSSLSASPGASVSLTCTLRSGINVGAYRIYWYQQKPGSPPQFLLRYKSDSDKQQGSGVPSRFSGSRDASANAGILLISGLRSEDEADYYCAIWHSSAWVFGGGTQLTVL
notes: VH of abN48-2; equals the VH of m2 (PDB 6KVF) with Ser99 to Arg99 and Ser100A to Arg100A in H-CDR3 (Kabat numbering); complete constant domains of human IgG1 heavy chain; whole lambda light chain; as the light chain of m2; Full-length IgG1, lambda type; also called ab48-2-IgG1; AbN4-2-IgG1; source: HEK293T (results) or HEK293F (methods), transfected, purified (HiTrap Protein A)
partial agonist effect on Ca^2+ influx at high concentration (10–1000 nM), FLIPR, apparent EC50 [2]: 310 nM | Kd [3]: 0.0072 nM | binding result [4]: binds

B4: abN48 Fab (Fab, V domains shown)
VH: QVQLVQSGAEVKKPGSSVKVSCKASGGTLSSYAISWVRQAPGQGPEWMGWINPNSGGTNYAQKFQGRVTMTRDTSISTAYMELSRLRPDDTAVYYCASGYCSSTSCYDYWGQGTLVTVSS
VL: QAVLTQPSSLSASPGASVSLTCTLRSGINVGAYRIYWYQQKPGSPPQFLLRYKSDSDKQQGSGVPSRFSGSRDASANAGILLISGLRSEDEADYYCAIWHSSAWVFGGGTQLTVL
notes: Fab heavy chain of abN48; light chain of abN48; as the light chain of m2; source: Fab made following a similar protocol as for abN48-2 Fab (papain cleavage of the IgG1, purified)
binding result [5]: binds

B5: abN48-2 Fab (Fab, V domains shown)
VH: QVQLVQSGAEVKKPGSSVKVSCKASGGTLSSYAISWVRQAPGQGPEWMGWINPNSGGTNYAQKFQGRVTMTRDTSISTAYMELSRLRPDDTAVYYCASGYCSRTRCYDYWGQGTLVTVSS
VL: QAVLTQPSSLSASPGASVSLTCTLRSGINVGAYRIYWYQQKPGSPPQFLLRYKSDSDKQQGSGVPSRFSGSRDASANAGILLISGLRSEDEADYYCAIWHSSAWVFGGGTQLTVL
notes: Fab heavy chain of abN48-2; VH equals that of m2 (PDB 6KVF) with Ser99 to Arg99 and Ser100A to Arg100A (Kabat numbering); lambda light chain; as the light chain of m3; source: papain cleavage of abN48-2-IgG1, purified (HiTrap lambda HP, Superdex200 increase)
binding result [5]: binds

B6: abN48-IgG1 (antibody, V domains shown)
VH: QVQLVQSGAEVKKPGSSVKVSCKASGGTLSSYAISWVRQAPGQGPEWMGWINPNSGGTNYAQKFQGRVTMTRDTSISTAYMELSRLRPDDTAVYYCASGYCSSTSCYDYWGQGTLVTVSS
VL: QAVLTQPSSLSASPGASVSLTCTLRSGINVGAYRIYWYQQKPGSPPQFLLRYKSDSDKQQGSGVPSRFSGSRDASANAGILLISGLRSEDEADYYCAIWHSSAWVFGGGTQLTVL
notes: VH of abN48; complete constant domains of human IgG1 heavy chain; whole light chain of abN48 (VL and CL); Full-length IgG1; source: HEK293F, co-transfected heavy and light chain plasmids, purified (HiTrap Protein A)
Kd [3]: 0.78 nM | binding result [4]: binds | binding result [6]: binds

B7: H8 (abN48) scFv antibody (scFv, V domains shown)
VH: QVQLVQSGAEVKKPGSSVKVSCKASGGTLSSYAISWVRQAPGQGPEWMGWINPNSGGTNYAQKFQGRVTMTRDTSISTAYMELSRLRPDDTAVYYCASGYCSSTSCYDYWGQGTLVTVSS
VL: QAVLTQPSSLSASPGASVSLTCTLRSGINVGAYRIYWYQQKPGSPPQFLLRYKSDSDKQQGSGVPSRFSGSRDASANAGILLISGLRSEDEADYYCAIWHSSAWVFGGGTQLTVL
notes: VH and VL as in the abN48 Fab of PDB 6KVF; Expressed as scFv-Fc with the entire Fc domain of human IgG1 (pFuse, InvivoGen pfuse-hg1fc2); also called scFv-Fc; source: HEK293F, transfected (pFuse vector); in cellular supernatant, and purified (HiTrap Protein A)
binding result [7]: binds | Kd [3]: 2.6 nM
